Data from patent US6989144.

Experiments:
[1] = target: GPVI on baboon platelets (baboon); assay: flow cytometry, washed baboon platelets; negative control
collagen type I = assay: cell-based or functional assay
[2] = target: GPVI on baboon platelets (baboon); assay: flow cytometry, washed baboon platelets
[3] = target: soluble human GPVI-Fc (extracellular domain of GPVI fused to Fc; hGPVI-human IgG1Fc) (human) (UniProt Q9HCN6); assay: 125I-convulxin binding to GPVI-Fc captured on 1P10.2, 10 µg/ml reagent; competitor ligand convulxin
Chain of soluble human GPVI-Fc (extracellular domain of GPVI fused to Fc; hGPVI-human IgG1Fc) (human) (Q9HCN6 other isoform, or with tags, fused parts or gaps): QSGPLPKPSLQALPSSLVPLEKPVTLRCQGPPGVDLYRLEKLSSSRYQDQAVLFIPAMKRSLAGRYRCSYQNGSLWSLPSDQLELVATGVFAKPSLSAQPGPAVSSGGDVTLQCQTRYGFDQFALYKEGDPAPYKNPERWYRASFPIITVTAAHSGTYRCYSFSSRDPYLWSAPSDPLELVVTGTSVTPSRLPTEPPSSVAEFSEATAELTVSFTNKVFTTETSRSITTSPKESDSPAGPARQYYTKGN

| Substance | Baboon fluorescence intensity [1] | Baboon platelets % positive [1] | further results |
| --- | --- | --- | --- |
| monoclonal antibody 7120.2 (negative control) | 10 | 9% |  |
| monoclonal antibody 7H14.1 (negative control) | 9 | 6.8% |  |
| recombinant human soluble GPVI:Fc (rhusGPVI:Fc) (from UniProt Q9HCN6 21-269) (Fc fusion) |  |  | collagen-induced platelet aggregation and secretion (collagen type I): 10 fold |
| mouse monoclonal antibody produced by hybridoma cell line 9012.2 |  |  | Baboon fluorescence intensity [2]: 18; Baboon platelets % positive [2]: 33.8%; % blocking of GPVI-Fc binding to convulxin [3]: > 25% |
